# Reference: the supplement of paper PMC7877785
# ± gives the uncertainty stated by the source.
# Assay: self-splicing fitness, log relative to wild type (ln ratio); higher = more splicing; Tetrahymena group I intron in knt gene, E. coli kanamycin selection, DiMSum; sequences stand for … in CUCUCU…GGAGGGAAAAGUUAUCAGGCAUGCACCUGGUAGCUAGUCUUUAAACCAAUAGAUUGCAUCGGUUUAAAAGGCAAGACCGUCAAAUUGCGGGAAAGGGGUCAACAGCCGUUCAGUACCAAGUCUCAGGGGAAACUUUGAGAUGGCCUUGCAAAGGGUAUGGUAAUAAGCUGACGGACAUGGUCCUAACCACGCAGCCAAGUCCUAAGUCAACAGAUCUUCUGUUGAUAUGGAUGCAGUUCACAGACUAAAUGUCGGUCGGGGAAGAUGUAUUCUUCUCAUAAGAUAUAGUCGGACCUCUCCUUAAUGGGAGCUAGCGGAUGAAGUGAUGCAACACUGGAGCCGCUGGGAACUAAUUUGUAUGCGAAAGUAUAUUGAUUAGUUUUGGAGUACUCGUGGUCG
# How it was run: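 Library with all eight P1ex-region intron nucleotides randomised, intron inside the knt kanamycin-resistance gene on pET-22b(+), in E. coli BL21(DE3). Cells grew overnight at 37°C or 30°C on LB agar with or without 25 μg/mL kanamycin (plus 100 μg/mL carbenicillin, 50 μM IPTG, 0.2% rhamnose), in six replicate transformations. Pooled colonies were amplicon-sequenced on Illumina HiSeq 2500. DiMSum fitness is the error-weighted combination of wild-type-normalised replicate fold changes, kanamycin versus none.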
Sequence,self-splicing fitness (ln) (30 °C),self-splicing fitness (ln) (37 °C)
UAGCAGCAAUAUUACGCCUC,-3.28 ± 0.16,-1.11 ± 0.12
UAGCAGCAAUAUUACGCGGC,-3.84 ± 0.22,-1.6 ± 0.21
UAGCAGCAAUAUUACGCUUC,-3.05 ± 0.34,-2.25 ± 0.33
UAGCAGCAAUAUUACGGAAU,-3.87 ± 0.44,-2.13 ± 0.33
UAGCAGCAAUAUUACGGACA,-0.821 ± 0.11,-0.11 ± 0.13
UAGCAGCAAUAUUACGGCGA,-0.238 ± 0.077,0.939 ± 0.1
UAGCAGCAAUAUUACGGCUG,-3.72 ± 0.35,-2.64 ± 0.28
UAGCAGCAAUAUUACGGGCA,-0.608 ± 0.11,-0.41 ± 0.1
UAGCAGCAAUAUUACGGUUG,-1.17 ± 0.092,-0.442 ± 0.12
UAGCAGCAAUAUUACGUAGC,-3.58 ± 0.44,-2.78 ± 0.38
UAGCAGCAAUAUUACGUCCA,-0.794 ± 0.11,-0.187 ± 0.11
UAGCAGCAAUAUUACGUCUA,-0.114 ± 0.073,0.146 ± 0.084
UAGCAGCAAUAUUACGUCUU,-1.07 ± 0.071,-0.289 ± 0.085
UAGCAGCAAUAUUACGUUGU,-3.72 ± 0.21,-3.08 ± 0.26
UAGGAGCAAUAUUACGAACG,-0.534 ± 0.12,-0.578 ± 0.19
UAGGAGCAAUAUUACGACCA,-1.68 ± 0.13,-0.415 ± 0.19
UAGGAGCAAUAUUACGACUC,-2.01 ± 0.28,
UAGGAGCAAUAUUACGACUG,-0.384 ± 0.096,0.363 ± 0.14
UAGGAGCAAUAUUACGAGAA,-3.23 ± 0.44,-2.68 ± 0.42
UAGGAGCAAUAUUACGCAUU,-3.91 ± 0.35,-2.42 ± 0.42
UAGGAGCAAUAUUACGCGAU,-3.84 ± 0.47,-2.68 ± 0.34
UAGGAGCAAUAUUACGCGUC,-2.98 ± 0.28,-2.22 ± 0.29
UAGGAGCAAUAUUACGGCAG,-3.1 ± 0.37,-0.425 ± 0.25
UAGGAGCAAUAUUACGGGAG,-2.69 ± 0.27,-2.96 ± 0.36
UAGGAGCAAUAUUACGGGUA,-1.45 ± 0.17,-2.13 ± 0.21

Sequence,self-splicing fitness (ln) (30 °C),self-splicing fitness (ln) (37 °C)
UAGGAGCAAUAUUACGUGGA,-2.34 ± 0.38,-1.43 ± 0.22
UAGGAGCAAUAUUACGUUAU,-4.64 ± 0.22,-2.85 ± 0.15
UAGGAGCAAUAUUACGUUGA,-2.46 ± 0.18,-1.19 ± 0.17
UAGUAGCAAUAUUACGACCG,-0.133 ± 0.16,0.109 ± 0.16
UAGUAGCAAUAUUACGACGG,-1.21 ± 0.16,-0.306 ± 0.21
UAGUAGCAAUAUUACGAGAU,-2.69 ± 0.13,-2.32 ± 0.19
UAGUAGCAAUAUUACGAGCA,-1.07 ± 0.12,-0.0288 ± 0.12
UAGUAGCAAUAUUACGAGGC,-3.45 ± 0.32,
UAGUAGCAAUAUUACGAGUG,-1.66 ± 0.081,-0.549 ± 0.083
UAGUAGCAAUAUUACGAUAG,-1.95 ± 0.35,
UAGUAGCAAUAUUACGAUGC,-4.61 ± 0.34,-2.56 ± 0.2
UAGUAGCAAUAUUACGAUUA,-0.381 ± 0.099,0.0431 ± 0.098
UAGUAGCAAUAUUACGCACC,,-0.0165 ± 0.38
UAGUAGCAAUAUUACGCCGA,-1.81 ± 0.23,-0.922 ± 0.2
UAGUAGCAAUAUUACGCCUC,,-1.66 ± 0.31
UAGUAGCAAUAUUACGCGCA,-0.614 ± 0.1,0.274 ± 0.11
UAGUAGCAAUAUUACGCUUU,-2.3 ± 0.25,-2.18 ± 0.18
UAGUAGCAAUAUUACGGACA,-1.04 ± 0.17,-0.115 ± 0.19
UAGUAGCAAUAUUACGGACU,-0.0123 ± 0.18,0.484 ± 0.15
UAGUAGCAAUAUUACGGAGA,-3.56 ± 0.47,-3.35 ± 0.35
UAGUAGCAAUAUUACGGAUA,-2.7 ± 0.26,-0.444 ± 0.14
UAGUAGCAAUAUUACGGCAG,-1.01 ± 0.11,-1.57 ± 0.14
UAGUAGCAAUAUUACGGCCC,-2.09 ± 0.17,-1.92 ± 0.37
UAGUAGCAAUAUUACGGCUC,-1.01 ± 0.098,0.206 ± 0.14
UAGUAGCAAUAUUACGGGCG,-0.694 ± 0.14,-0.395 ± 0.12

Sequence,self-splicing fitness (ln) (30 °C),self-splicing fitness (ln) (37 °C)
UAGUAGCAAUAUUACGGGGU,-3 ± 0.17,-2.89 ± 0.22
UAGUAGCAAUAUUACGGUGA,-2.29 ± 0.42,-1.46 ± 0.24
UAGUAGCAAUAUUACGGUUG,-0.955 ± 0.056,-0.642 ± 0.07
UAGUAGCAAUAUUACGUAUG,-1.82 ± 0.1,-0.711 ± 0.12
UAGUAGCAAUAUUACGUCGU,-3.76 ± 0.38,-2.81 ± 0.21
UAGUAGCAAUAUUACGUGUU,-3.65 ± 0.21,-1.95 ± 0.15
UAGUAGCAAUAUUACGUUAA,-2.34 ± 0.17,-2.06 ± 0.17
UAGUAGCAAUAUUACGUUAC,-3.78 ± 0.2,-2.97 ± 0.23
UAGUAGCAAUAUUACGUUUC,-1.16 ± 0.38,-1.5 ± 0.41
UAUAAGCAAUAUUACGAACA,-0.73 ± 0.15,-0.241 ± 0.21
UAUAAGCAAUAUUACGAACC,-2.5 ± 0.41,-1.51 ± 0.32
UAUAAGCAAUAUUACGAGUU,-2.72 ± 0.15,-1.11 ± 0.15
UAUAAGCAAUAUUACGAUUG,-1.48 ± 0.11,-0.744 ± 0.13
UAUAAGCAAUAUUACGCAUA,-1.92 ± 0.12,-0.585 ± 0.12
UAUAAGCAAUAUUACGCGAG,-1.39 ± 0.12,-1.02 ± 0.11
UAUAAGCAAUAUUACGCUGA,-1.96 ± 0.22,-1.53 ± 0.23
UAUAAGCAAUAUUACGGAAC,-4.02 ± 0.42,-2.94 ± 0.41
UAUAAGCAAUAUUACGGCAU,-0.623 ± 0.077,-0.223 ± 0.098
UAUAAGCAAUAUUACGGCCA,-0.385 ± 0.15,0.169 ± 0.22
UAUAAGCAAUAUUACGGCGC,-1.25 ± 0.11,-1.35 ± 0.14
UAUAAGCAAUAUUACGGGCC,-2.99 ± 0.31,
UAUAAGCAAUAUUACGGGGC,-2.29 ± 0.45,
UAUAAGCAAUAUUACGGUCC,-0.922 ± 0.44,
UAUAAGCAAUAUUACGGUGC,-2.46 ± 0.19,-3.09 ± 0.3
UAUAAGCAAUAUUACGUACG,-0.621 ± 0.13,-0.0322 ± 0.15

Sequence,self-splicing fitness (ln) (30 °C),self-splicing fitness (ln) (37 °C)
UAUAAGCAAUAUUACGUAUU,-4.41 ± 0.37,-1.61 ± 0.18
UAUAAGCAAUAUUACGUCAA,-2.24 ± 0.14,-0.698 ± 0.11
UAUAAGCAAUAUUACGUCGG,-0.782 ± 0.076,-0.0864 ± 0.098
UAUAAGCAAUAUUACGUUAA,-2.59 ± 0.15,-1.5 ± 0.14
UAUAAGCAAUAUUACGUUGU,-4.3 ± 0.2,-2.55 ± 0.17
UAUCAGCAAUAUUACGAAUG,0.00149 ± 0.052,0.0362 ± 0.07
UAUCAGCAAUAUUACGAGAG,-3.03 ± 0.15,-0.0372 ± 0.092
UAUCAGCAAUAUUACGCCAA,-1.34 ± 0.19,-0.351 ± 0.2
UAUCAGCAAUAUUACGCCGA,-1.32 ± 0.12,-0.34 ± 0.18
UAUCAGCAAUAUUACGCGAU,,-2.49 ± 0.23
UAUCAGCAAUAUUACGCGUA,-0.493 ± 0.1,0.0959 ± 0.12
UAUCAGCAAUAUUACGGCAU,-1.14 ± 0.071,-0.0824 ± 0.075
UAUCAGCAAUAUUACGGCCA,0.201 ± 0.12,0.167 ± 0.11
UAUCAGCAAUAUUACGUAAA,-0.89 ± 0.068,0.233 ± 0.1
UAUCAGCAAUAUUACGUAAC,-1.48 ± 0.14,-0.246 ± 0.16
UAUCAGCAAUAUUACGUAAU,-1.62 ± 0.073,-0.784 ± 0.077
UAUCAGCAAUAUUACGUACA,-0.141 ± 0.058,-0.199 ± 0.07
UAUCAGCAAUAUUACGUCGG,-1.02 ± 0.064,0.0416 ± 0.082
UAUCAGCAAUAUUACGUGAC,-0.555 ± 0.1,-1.45 ± 0.15
UAUCAGCAAUAUUACGUGCC,-4.21 ± 0.34,-1.95 ± 0.16
UAUCAGCAAUAUUACGUGGG,-1.97 ± 0.1,-1.77 ± 0.13
UAUCAGCAAUAUUACGUGUU,-3.36 ± 0.14,-2.83 ± 0.12
UAUGAGCAAUAUUACGAAGA,-2.69 ± 0.44,-1.81 ± 0.2
